# From PMC11988119
# Target: GnRH-AIF chimeric protein
# Assay: co-IP; anti-AIF antibody (ab32516) on Protein A/G beads; nuclear fractions of Colo205 cells treated with GnRH-AIF (1 µM) or PBS for 24 h; overnight at 4 °C, washed with PBS; blots with anti-ENDOG and anti-AIFM1
binder,measurement,value
endonuclease G (enzyme) AELPPVPGGPRGPGELAKYGLPGLAQLKSRESYVLCYDPRTRGALWVVEQLRPERLRGDGDRRECDFREDDSVHAYHRATNADYRGSGFDRGHLAAAANHRWSQKAMDDTFYLSNVAPQVPHLNQNAWNNLEKYSRSLTRSYQNVYVCTGPLFLPRTEADGKSYVKYQVIGKNHVAVPTHFFKVLILEAAGGQIELRTYVMPNAPVDEAIPLERFLVPIESIERASGLLFVPNILARAGSLKAITAGSK,"fold increase of co-precipitated ENDOG, cells treated with GnRH-AIF against PBS control",1.6 fold
